Data on one substance can be found in article PMC4612324.

Broadly, the EC50 is the concentration that produces a half-maximal response. Read a low EC50 as higher potency in that assay.

For this assay, the target named is Aβ 1-40 peptide (UniProt P05067). As to the kind of experiment: ELISA; Aβ1-40 peptide coated on Maxisorp plates (0.1 µg/ml, bicarbonate buffer pH 9.6); antibodies serially diluted in PBS/1 % BSA, 1 h at room temperature; detected with biotinylated anti-mouse IgG and streptavidin poly-HRP; relative affinity. (In general: ELISA stands for enzyme-linked immunosorbent assay.)

Consider “chGantenerumab (mouse/human chimeric version of Gantenerumab with mouse IgG2a constant region) (antibody)”, for which the EC50 came out at 0.34 pM.
